The assay has as its target T1, CatSper1 (UniProt Q91ZR5 1-686).
T1 sequence (looked up): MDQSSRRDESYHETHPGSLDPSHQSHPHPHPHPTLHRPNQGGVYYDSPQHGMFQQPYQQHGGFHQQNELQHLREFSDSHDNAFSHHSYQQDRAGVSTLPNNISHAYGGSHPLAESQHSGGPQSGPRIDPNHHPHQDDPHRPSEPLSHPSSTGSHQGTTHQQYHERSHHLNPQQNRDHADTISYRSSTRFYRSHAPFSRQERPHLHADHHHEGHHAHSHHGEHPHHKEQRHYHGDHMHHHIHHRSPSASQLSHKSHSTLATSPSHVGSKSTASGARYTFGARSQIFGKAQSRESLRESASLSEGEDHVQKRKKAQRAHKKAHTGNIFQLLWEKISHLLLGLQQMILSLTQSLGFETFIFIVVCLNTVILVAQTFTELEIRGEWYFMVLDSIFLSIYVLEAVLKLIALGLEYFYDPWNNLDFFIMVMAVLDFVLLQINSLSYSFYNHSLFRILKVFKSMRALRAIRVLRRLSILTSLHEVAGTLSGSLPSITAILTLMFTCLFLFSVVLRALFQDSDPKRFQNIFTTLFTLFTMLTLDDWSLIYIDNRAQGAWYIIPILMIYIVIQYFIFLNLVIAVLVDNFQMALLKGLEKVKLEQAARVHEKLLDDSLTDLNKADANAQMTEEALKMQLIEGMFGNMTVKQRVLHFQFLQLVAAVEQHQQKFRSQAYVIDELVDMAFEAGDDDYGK
The experiment in a line: co-immunoprecipitation from testis detergent extracts, immunoblot with CatSper1 antibody. On the procedure: For immunoprecipitation, samples were extracted with TBS (20 mM Tris-HCl, 150 mM NaCl, pH 7.4) containing either 1% TX-100 or 1% Zwittergent 3-14 for at least 4 hours at 4° C. The extract was centrifuged at 100,000 ×g for 30 min, and the resultant supernatant solution was incubated for 2 hours with preimmune IgG covalently bound to Protein A agarose (Seize X™, Pierce Chemical Co., Rockford, Ill.). The nonbound fraction was recovered and incubated with peptide reactive antibody (±1.5 μM peptide preincubation)/Protein A agarose overnight with rocking at 4° C. The resulting immune complexes were washed 5 times. SDS-polyacrylamide electrophoresis was according to Laemmli (1970), Nature 227:680-5. Electrophoretically separated samples were transferred to nitrocellulose membranes according to Towbin et al. (1979), Proc. Natl. Acad. Sci. USA 76:4350-4, at 50V for 2 hours, 4° C. Immnunoblots were probed in TBST/2:5% nonfat milk with CatSper2 antibody (1:5000) or CatSper1 (1:2000) antibody. After incubation with, the primary antibody, the blots were rinsed once with TBST/2.5% nonfat milk and washed with TBST (4 changes over 30 min). Blots were then incubated with secondary goat anti-rabbit IgG-HRP conjugate for 1 hour, washed with TBST (3 changes over 30 min), rinsed with TBS (3 times), and the signal detected with chemiluminescence (Pierce Chemical Co., Rockford, Ill.). […]

B1: murine CatSper2 protein (SEQ ID NO: 6) (other)
chain: MAQEQGHFQLLRADAIRSKLIDTFSLIEHLQGLSQAVPRHTLREILDPAYQQKLMSGDQEQLVRFSIKPRRMGHITHSRRLLSRLRVRCSRMPPLSLWAGWVLDSSVFSKFIISLIFLNTFVLMVEIELMESTNTALWPVKLALEVADWFILLSFIVEILLMWLASFSLFWKDAWNVFDFFVTLLSLLPELVVLLGVPAHSVWLQLLRVCRVLRSLKLFARFRQIKVILLALVRALKSMTFLLMLLLIFFYIFAVTGVYFFREYSRSTIEGLEYNMFFSDLLNSLVTVFILFTLDHWYAVLQNIWKVPESSRVFSSIYVILWLLLGSIIFRNIIIAMMVTNFQNIRSELSEEMSHLEVQYKADMFKQQIIQRRQHSESLRGTSLGKVSEDIIETSDASDDDDDDDDDDDDDDDDDDDKSDATESDGEESDSENSESENSESEKIDPEKDYAKKSYPEKSHPEKSYPEKSHPEKSYPEKSHPEKSYDEQAEAEKVKEESKEKAYPVSHSISSHGSIAADTAFLENLDWETLVHENLPGLMDMDQDDRIVWPRDSLFRYFELLEKLQYNLEERKKLQEFAVQALMSFEDK
notes: also called mouse CatSper2; 68,000 Mr protein
Take B1: the binding result is “no binding”.

The values above are taken from patent US20050142566A1 (CHILDREN S MEDICAL CENTER, published 2005).
